The values below come from patent publication EP4792830A2 (Pfizer Inc., dated 2026).

Assay [1] has as its target T1, rabTFPI K1K2 (rabbit, limits assumed).
T1 construct: also called Rabbit TFPI K1K2
T1 chain: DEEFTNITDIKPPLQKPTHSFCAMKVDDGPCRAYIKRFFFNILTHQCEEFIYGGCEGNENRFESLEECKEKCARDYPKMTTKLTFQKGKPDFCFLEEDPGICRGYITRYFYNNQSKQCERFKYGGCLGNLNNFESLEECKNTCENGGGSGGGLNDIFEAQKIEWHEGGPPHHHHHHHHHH
As to the kind of experiment: ELISA, TFPI on streptavidin plate. A general note: ELISA stands for enzyme-linked immunosorbent assay.

The target in assay [2] is T1, rabTFPI K1K2. As to the kind of experiment: SPR, antibody ligand, TFPI analyte. A general note: SPR reads the build-up and loss of mass on a sensor chip optically.

B1: mu-hu 4D8 chimera (antibody, human IgG1, kappa)
heavy: EVLLQQSGPELVKPGASVKIPCKASGYTFTDYNLDWVKQSHGKSLEWIGDINPINGATLYNQKFKGKATLTVDQSSSTAYMELRSLTSEDTAVYYCSIYYGDYDAMDYWGQGASVTVSSASTKGPSVFPLAPSSKSTSGGTAALGCLVKDYFPEPVTVSWNSGALTSGVHTFPAVLQSSGLYSLSSVVTVPSSSLGTQTYICNVNHKPSNTKVDKKVEPKSCDKTHTCPPCPAPEAAGAPSVFLFPPKPKDTLMISRTPEVTCVVVDVSHEDPEVKFNWYVDGVEVHNAKTKPREEQYNSTYRVVSVLTVLHQDWLNGKEYKCKVSNKALPAPIEKTISKAKGQPREPQVYTLPPSREEMTKNQVSLTCLVKGFYPSDIAVEWESNGQPENNYKTTPPVLDSDGSFFLYSKLTVDKSRWQQGNVFSCSVMHEALHNHYTQKSLSLSPG
light: DIVMTQSHKFMSTSVGDRVSITCKASQDVHTAVAWYQQKPGQSPRLLIYWASTRHTGVPDRFTGCGSGTDYTLTISSVQAEDLALYYCQQHYTTPYTFGGGTKLEMKRTVAAPSVFIFPPSDEQLKSGTASVVCLLNNFYPREAKVQWKVDNALQSGNSQESVTEQDSKDSTYSLSSTLTLSKADYEKHKVYACEVTHQGLSSPVTKSFNRGEC
notes: Mouse variable regions on human IgG1 3M and human kappa constant regions; also called hu-mu 4D8 chimera; mouse-human chimeric antibody 4D8
As a reminder, the EC50 is the concentration giving half of the maximal effect. Read a low EC50 as a more potent agent. What is called Kd is a measure of binding affinity in units of concentration. A word on the koff: it is a measure of how fast the partners let go of each other. As usually defined, the kon is the second-order rate constant of association. The molecule B1 yielded an EC50 in the assay with rabTFPI K1K2 [1] of 0.068 nM. Further, in the assay with rabTFPI K1K2 [2], the Kd was 0.63 nM, the koff is 0.00126 s⁻¹ and the kon is 2.01e+06 M⁻¹ s⁻¹.
